# Assay results as given in the supplement of paper PMC10065799, “High-throughput profiling of sequence recognition by tyrosine kinases and SH2 domains using bacterial peptide display” (eLife, 2023).
# Assays:
# AncSZ = assay: phosphorylation enrichment, bacterial display (enrichment ratio); higher = better substrate or ligand; peptides without Tyr show the background
# EPHB1 = EPHB1 (UniProt P54762); assay: as above
# EPHB2 = EPHB2 (UniProt P29323); assay: as above
# FGFR1 = FGFR1 (UniProt P11362); assay: as above
# FGFR3 = FGFR3 (UniProt P22607); assay: as above
# Fer (mouse) = assay: as above
# Fes = Fes (UniProt P07332); assay: as above
# Chain of Fes (P07332 whole entry, looked up): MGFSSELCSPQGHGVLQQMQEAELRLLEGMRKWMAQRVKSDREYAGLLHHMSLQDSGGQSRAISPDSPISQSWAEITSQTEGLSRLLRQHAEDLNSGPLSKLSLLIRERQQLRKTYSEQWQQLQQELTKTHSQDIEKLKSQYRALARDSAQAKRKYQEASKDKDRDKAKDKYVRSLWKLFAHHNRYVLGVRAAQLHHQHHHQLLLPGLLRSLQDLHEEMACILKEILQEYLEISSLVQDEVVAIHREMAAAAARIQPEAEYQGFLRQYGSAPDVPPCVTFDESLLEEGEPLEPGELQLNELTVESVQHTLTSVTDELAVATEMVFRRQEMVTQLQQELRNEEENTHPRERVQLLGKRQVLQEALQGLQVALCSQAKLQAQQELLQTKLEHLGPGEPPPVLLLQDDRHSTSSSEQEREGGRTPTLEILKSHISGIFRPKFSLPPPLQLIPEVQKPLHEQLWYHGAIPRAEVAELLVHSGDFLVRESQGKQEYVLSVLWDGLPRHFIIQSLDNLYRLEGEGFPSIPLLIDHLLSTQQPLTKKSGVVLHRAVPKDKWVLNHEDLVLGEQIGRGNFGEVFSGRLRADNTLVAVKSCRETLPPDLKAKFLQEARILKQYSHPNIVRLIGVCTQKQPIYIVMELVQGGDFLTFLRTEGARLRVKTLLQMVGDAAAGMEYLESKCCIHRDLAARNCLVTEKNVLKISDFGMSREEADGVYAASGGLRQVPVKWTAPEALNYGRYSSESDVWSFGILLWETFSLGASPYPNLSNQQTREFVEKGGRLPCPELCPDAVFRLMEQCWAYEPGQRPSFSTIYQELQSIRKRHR
# Fyn = Fyn (UniProt P06241); assay: as above
# Chain of Fyn (P06241 whole entry, looked up): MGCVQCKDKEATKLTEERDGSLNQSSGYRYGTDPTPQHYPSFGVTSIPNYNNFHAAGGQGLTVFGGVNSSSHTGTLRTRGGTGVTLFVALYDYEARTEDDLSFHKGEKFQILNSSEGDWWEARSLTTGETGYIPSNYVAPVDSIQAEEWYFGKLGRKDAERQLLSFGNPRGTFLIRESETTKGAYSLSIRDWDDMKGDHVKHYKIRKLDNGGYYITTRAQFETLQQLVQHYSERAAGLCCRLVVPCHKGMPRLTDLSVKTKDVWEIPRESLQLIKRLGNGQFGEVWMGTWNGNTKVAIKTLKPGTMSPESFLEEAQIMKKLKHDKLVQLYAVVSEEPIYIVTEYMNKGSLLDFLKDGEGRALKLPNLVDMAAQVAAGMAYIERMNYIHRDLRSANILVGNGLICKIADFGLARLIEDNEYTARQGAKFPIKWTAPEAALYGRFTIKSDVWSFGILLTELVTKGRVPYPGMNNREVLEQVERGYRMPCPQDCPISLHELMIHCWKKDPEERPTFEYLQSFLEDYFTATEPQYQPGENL
# Hck = Hck (UniProt P08631); assay: as above
# Chain of Hck (P08631 whole entry, looked up): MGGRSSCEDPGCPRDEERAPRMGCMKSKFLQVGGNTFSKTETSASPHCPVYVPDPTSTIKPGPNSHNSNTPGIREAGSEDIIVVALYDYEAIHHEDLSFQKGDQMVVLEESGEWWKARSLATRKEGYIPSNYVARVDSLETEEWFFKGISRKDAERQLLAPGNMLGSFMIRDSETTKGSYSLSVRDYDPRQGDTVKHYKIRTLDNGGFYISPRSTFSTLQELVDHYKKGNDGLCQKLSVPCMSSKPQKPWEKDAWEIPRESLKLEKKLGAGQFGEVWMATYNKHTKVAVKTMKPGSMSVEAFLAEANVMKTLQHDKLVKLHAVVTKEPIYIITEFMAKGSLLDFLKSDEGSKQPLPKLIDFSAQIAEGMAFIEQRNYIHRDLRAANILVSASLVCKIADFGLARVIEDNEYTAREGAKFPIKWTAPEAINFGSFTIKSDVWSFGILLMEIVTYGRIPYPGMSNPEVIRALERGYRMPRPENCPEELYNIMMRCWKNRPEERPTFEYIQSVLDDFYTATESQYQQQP
# Jak2 = Jak2 (UniProt O60674); assay: as above
# Chain of Jak2 (O60674 whole entry, looked up): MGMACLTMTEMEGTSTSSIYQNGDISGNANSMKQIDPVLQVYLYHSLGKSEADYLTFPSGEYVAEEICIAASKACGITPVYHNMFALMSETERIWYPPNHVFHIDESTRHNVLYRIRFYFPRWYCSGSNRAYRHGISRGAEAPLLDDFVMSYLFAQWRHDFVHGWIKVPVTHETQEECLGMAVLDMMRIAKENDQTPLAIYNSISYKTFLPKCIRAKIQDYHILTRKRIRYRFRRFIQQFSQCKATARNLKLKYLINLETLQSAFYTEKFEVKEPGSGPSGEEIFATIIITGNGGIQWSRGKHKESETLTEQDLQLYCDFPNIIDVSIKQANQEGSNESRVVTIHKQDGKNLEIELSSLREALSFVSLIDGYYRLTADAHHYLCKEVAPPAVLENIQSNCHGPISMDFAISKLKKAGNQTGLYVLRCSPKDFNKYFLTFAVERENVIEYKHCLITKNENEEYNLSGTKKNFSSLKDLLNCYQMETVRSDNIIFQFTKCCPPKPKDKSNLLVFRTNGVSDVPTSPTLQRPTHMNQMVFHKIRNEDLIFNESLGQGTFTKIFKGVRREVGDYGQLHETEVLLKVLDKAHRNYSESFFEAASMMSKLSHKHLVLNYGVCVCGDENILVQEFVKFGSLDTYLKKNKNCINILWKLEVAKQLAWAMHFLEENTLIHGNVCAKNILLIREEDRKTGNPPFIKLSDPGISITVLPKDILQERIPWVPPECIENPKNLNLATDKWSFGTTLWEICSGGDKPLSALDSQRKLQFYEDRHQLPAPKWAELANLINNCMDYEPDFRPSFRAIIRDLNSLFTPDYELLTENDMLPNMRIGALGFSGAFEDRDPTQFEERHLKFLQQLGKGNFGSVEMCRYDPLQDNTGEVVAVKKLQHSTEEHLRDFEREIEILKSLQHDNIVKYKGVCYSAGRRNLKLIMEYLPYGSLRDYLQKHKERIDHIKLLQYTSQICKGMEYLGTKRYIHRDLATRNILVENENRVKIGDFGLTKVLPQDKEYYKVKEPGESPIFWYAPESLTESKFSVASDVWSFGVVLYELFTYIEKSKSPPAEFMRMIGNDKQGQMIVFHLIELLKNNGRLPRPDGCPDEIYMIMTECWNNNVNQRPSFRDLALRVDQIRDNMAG
# MERTK = MERTK (UniProt Q12866); assay: as above
# Chain of MERTK (Q12866 whole entry, looked up): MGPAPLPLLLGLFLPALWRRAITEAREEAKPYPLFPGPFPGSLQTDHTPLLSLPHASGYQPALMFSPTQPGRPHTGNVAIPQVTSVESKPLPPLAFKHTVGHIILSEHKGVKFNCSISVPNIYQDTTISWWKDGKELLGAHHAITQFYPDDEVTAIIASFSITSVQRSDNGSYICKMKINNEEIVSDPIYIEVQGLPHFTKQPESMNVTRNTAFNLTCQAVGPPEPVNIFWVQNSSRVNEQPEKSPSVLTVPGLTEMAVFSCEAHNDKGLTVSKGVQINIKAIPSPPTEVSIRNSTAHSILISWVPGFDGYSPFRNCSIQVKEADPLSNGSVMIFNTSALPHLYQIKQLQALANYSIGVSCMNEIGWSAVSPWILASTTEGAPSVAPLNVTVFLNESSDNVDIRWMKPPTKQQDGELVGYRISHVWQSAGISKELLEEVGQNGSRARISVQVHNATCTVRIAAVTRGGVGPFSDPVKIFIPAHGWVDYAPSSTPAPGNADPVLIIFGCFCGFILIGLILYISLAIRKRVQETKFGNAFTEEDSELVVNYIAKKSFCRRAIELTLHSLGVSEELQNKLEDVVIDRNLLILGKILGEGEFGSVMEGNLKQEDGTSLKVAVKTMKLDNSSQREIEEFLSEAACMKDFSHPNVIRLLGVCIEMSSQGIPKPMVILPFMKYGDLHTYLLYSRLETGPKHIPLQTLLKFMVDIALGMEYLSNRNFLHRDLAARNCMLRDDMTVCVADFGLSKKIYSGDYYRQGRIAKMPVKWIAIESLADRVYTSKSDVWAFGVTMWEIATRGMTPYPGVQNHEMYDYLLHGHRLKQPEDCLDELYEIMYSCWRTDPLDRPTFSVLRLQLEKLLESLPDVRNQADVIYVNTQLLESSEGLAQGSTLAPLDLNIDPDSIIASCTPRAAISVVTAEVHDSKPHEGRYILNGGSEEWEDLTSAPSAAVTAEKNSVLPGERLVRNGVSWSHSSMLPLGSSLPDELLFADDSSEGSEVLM
# c-Abl (mouse) = assay: as above
# c-Src = assay: as above
# Grb2 SH2 = Grb2 SH2 (UniProt P62993); assay: SH2 binding enrichment of the phosphorylated peptide, bacterial display (enrichment ratio); higher = better substrate or ligand; peptides without Tyr show the background
# SHP2-C SH2 = assay: as above
# c-Src SH2 = assay: as above
# 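Wherever SH2 binding enrichment of the phosphorylated peptide, bacterial display is given: peptide library displayed on the E. coli surface as eCPX fusions, selected cells deep-sequenced, score is each peptide's frequency after selection divided by its frequency in the input.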
# 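Wherever phosphorylation enrichment, bacterial display is given: 11-residue human phosphosite peptides and single-mutation variants displayed on the E. coli surface, counted by deep sequencing, each peptide's frequency after selection divided by its frequency in the unselected input library; frequency after pTyr selection over input frequency; kinase dosed for 20-30% of maximal phosphorylation in three min.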
# Chain of EPHB1 (P54762 whole entry, looked up): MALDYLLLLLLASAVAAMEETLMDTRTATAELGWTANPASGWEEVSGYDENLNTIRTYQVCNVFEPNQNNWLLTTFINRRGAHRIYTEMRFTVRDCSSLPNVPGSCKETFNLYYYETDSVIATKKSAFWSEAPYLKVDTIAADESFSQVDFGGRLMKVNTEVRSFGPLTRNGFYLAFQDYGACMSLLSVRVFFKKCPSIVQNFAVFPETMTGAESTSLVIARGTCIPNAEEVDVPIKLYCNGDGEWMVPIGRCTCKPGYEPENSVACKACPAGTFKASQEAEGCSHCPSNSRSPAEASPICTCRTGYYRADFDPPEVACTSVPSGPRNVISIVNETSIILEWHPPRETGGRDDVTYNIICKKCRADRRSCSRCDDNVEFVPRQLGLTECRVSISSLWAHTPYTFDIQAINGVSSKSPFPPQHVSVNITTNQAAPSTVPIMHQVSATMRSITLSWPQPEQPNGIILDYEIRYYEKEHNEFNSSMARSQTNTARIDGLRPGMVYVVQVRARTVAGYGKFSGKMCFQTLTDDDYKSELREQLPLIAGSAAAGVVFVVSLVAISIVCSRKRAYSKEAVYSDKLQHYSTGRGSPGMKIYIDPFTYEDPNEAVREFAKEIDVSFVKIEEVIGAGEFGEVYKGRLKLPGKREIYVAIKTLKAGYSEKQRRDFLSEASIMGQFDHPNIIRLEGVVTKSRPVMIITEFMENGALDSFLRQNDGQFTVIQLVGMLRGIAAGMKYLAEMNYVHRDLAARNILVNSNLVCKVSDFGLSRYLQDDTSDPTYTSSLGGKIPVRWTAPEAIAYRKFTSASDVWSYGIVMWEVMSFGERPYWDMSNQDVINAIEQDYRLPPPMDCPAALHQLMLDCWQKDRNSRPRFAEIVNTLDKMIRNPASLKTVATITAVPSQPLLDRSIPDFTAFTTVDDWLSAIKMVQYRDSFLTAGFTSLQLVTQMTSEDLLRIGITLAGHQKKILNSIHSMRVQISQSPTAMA
SH2 binding enrichment (Grb2 SH2),SH2 binding enrichment (SHP2-C SH2),SH2 binding enrichment (c-Src SH2),Sequence,phosphorylation enrichment (AncSZ),phosphorylation enrichment (EPHB1),phosphorylation enrichment (EPHB2),phosphorylation enrichment (FGFR1),phosphorylation enrichment (FGFR3),phosphorylation enrichment (Fer (mouse)),phosphorylation enrichment (Fes),phosphorylation enrichment (Fyn),phosphorylation enrichment (Hck),phosphorylation enrichment (Jak2),phosphorylation enrichment (MERTK),phosphorylation enrichment (c-Abl (mouse)),phosphorylation enrichment (c-Src)
0.755,0.698,0.503,LDVGEYCVPRG [BEX1_Y43_A40V],5.36,2.26,2.47,0.982,1.23,0.842,1.21,1.09,0.853,1.32,0.568,3.73,0.539
0.918,0.553,0.416,FQEKSYIKGTS [LCTL_Y331_L326F],0.625,0.33,0.531,0.423,0.426,0.355,0.657,0.364,0.398,0.87,0.321,0.612,0.457
1.06,0.942,0.719,DAHFTYSRFPW [LY75_Y888_D884A_YF],1.05,2.72,3.63,0.748,0.736,0.499,1.09,3.13,5.79,1.29,3.89,1,5.62
1.02,0.539,0.469,RQEEEYKRLSE [SFSWAP_Y133],2.53,0.574,1.15,0.693,1.22,0.892,2.21,1.02,0.888,2.31,0.804,1.43,1.2
0.779,0.673,1.32,TVLEPYADPFF [ZC3H18_Y367_YF],1.16,0.432,0.5,0.753,0.611,0.536,0.879,0.526,0.65,0.906,0.408,0.565,0.517
1.03,0.966,0.632,FDNPIYQKTTE [LDLR_Y828_V827I],0.833,1.16,1.18,0.543,0.49,1.59,0.751,1.1,2.76,0.681,2.38,1.82,1.44
0.665,0.595,0.465,VDHFGYNKDDK [APOB_Y740_T741N],1.02,0.427,0.528,0.465,0.493,0.398,0.874,0.485,0.436,1.1,0.434,0.974,0.485
0.782,0.497,0.669,PEQAAYQKVVA [HBB_Y131_V127E],0.591,0.613,0.811,0.519,0.524,0.681,1.07,0.462,0.561,1.08,0.483,1,0.472
